This is an account of results in article PMC3617563.

Experiment [1] addresses K48-linked IQF (internally quenched fluorescence) diubiquitin substrate DiUb48-6 (UniProt P0CG48). Description: stopped-flow fluorescence.
Experiment [2] shares this target. Description: other fluorescence titration.

B1: C276A USP2 catalytic core (inactive active-site mutant) (domain or fragment)
chain: NSKSAQGLAGLRNLGNTAFMNSILQCLSNTRELRDYCLQRLYMRDLHHGSNAHTALVEEFAKLIQTIWTSSPNDVVSPSEFKTQIQRYAPRFVGYNQQDAQEFLRFLLDGLHNEVNRVTLRPKSNPENLDHLPDDEKGRQMWRKYLEREDSRIGDLFVGQLKSSLTCTDCGYCSTVFDPFWDLSLPIAKRGYPEVTLMDCMRLFTKEDVLDGDEKPTCCRCRGRKRCIKKFSIQRFPKILVLHLKRFSESRIRTSKLTTFVNFPLRDLDLREFASENTNHAVYNLYAVSNHSGTTMGGHYTAYCRSPGTGEWHTFNDSSVTPMSSSQVRTSDAYLLFYELASPPSRM
With B1, in experiment [1], the K1 (association constant of the first step) turned out to be 2.33 µM⁻¹; the K2 (equilibrium constant of the second step) is 0.59; the Kd from a fit to a single exponential function came to 2420 nM; the k1 (first step, association) was 140000 M⁻¹ s⁻¹. In experiment [1], this molecule displayed a k−1 (first step, dissociation) of 0.06 s⁻¹; a maximum of kobs,2 of 0.57 s⁻¹; a y-intercept of the linear regression of kobs,1 of 0.63 s⁻¹. Also, in experiment [2], the dissociation constant (Kd) was 270 nM.

A word on the Kd: it is the constant that tells how readily two partners part at equilibrium. Low readings indicate a tighter complex, high ones a looser complex.
